The values that follow are results of earlier work, collected in paper PMC8470622.

pKd: −log10 of the molar value. Several values for one entry are separate records, joined by “and”; a condition that tells them apart may be missing. Identical values can stand only once. Like-named read-outs stand apart in the source and are kept apart here.

The target of data set [1] is EGFR (Homo sapiens) (UniProt P00533).
The target in data set [2] is EGFR (low-affinity state) (Homo sapiens) (UniProt P00533). The data set can be described thus: radioligand.
For data set [3], the target named is EGFR (high-affinity state) (Homo sapiens) (UniProt P00533). Description: radioligand.
For data set [4], the target named is EGFR (Homo sapiens) (UniProt P00533). Description: radioligand.

Turning to EGF (from UniProt P01133), the negative-log Kd (pKd) in the data set with EGFR (Homo sapiens) [1] was 9.52 and 9.49; in data set [2] it was 8.55; in data set [3], 8.97; in the data set with EGFR (Homo sapiens) [4], 8.82.
